Values of other authors, collected in PMC9585055.

Target: cellular prion protein PrPC (Homo sapiens) (UniProt P04156)

In the case of “tissue-type plasminogen activator (from UniProt P00750)”, the Kd is listed as 2.5 nM.
